# ± gives the standard deviation.
# Assay: protein stability index of a GFP-peptide fusion (GPS, HEK-293T) (PSI 1-6); higher = more stable
# [1] = treatment: DMSO, c terminus: a fixed tail appended
# [2] = treatment: MLN4924 1 uM, 8 h, c terminus: a fixed tail appended
# [3] = treatment: DMSO, c terminus: native
# [4] = treatment: MLN4924 1 uM, 8 h, c terminus: native
# 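Further: 24-mer peptide tiles fused after GFP, lentivirally expressed, FACS-sorted into six equal bins by GFP/DsRed ratio, decoded by Illumina sequencing, PSI is the read-weighted mean bin number.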
Sequence,protein stability index [1],protein stability index [2],protein stability index [3],protein stability index [4]
NKTGVSPYSKTLVLQTSEGKALQQ [TRIM9],4.19 ± 0.14,4.22 ± 0.073,,
TSAKVNWMPPPSRADSFKVSYQLA [TNXB],2.5 ± 0.32,2.69 ± 0.26,,
RYCQCNPDDSTSEDGIHTLTCALM [PSD2],3.96 ± 0.32,4.09 ± 0.18,,
LYLVGFLDLFGVSMVVPLLSLHVK [MFSD9],3.61 ± 0.17,3.19 ± 0.33,,
RMLKDNKKNWRRVYKSLLLLAYLI [CLINT1],2.45 ± 0.38,2.63 ± 0.23,,
FATQTEELNKQVVSSSEQLQSCQA [KRT34],4.87 ± 0.28,4.86 ± 0.33,,
CQEYLARNARIVHLVEETRIHVLP [CPXM2],2.2 ± 0.28,2.49 ± 0.35,,
RKLRELQLRNCLRILMGELSNHHD [BEX3],2.38 ± 0.21,2.28 ± 0.19,,
ENYETVISLALFVLPKPKVISCLE [ZNF75A],3.11 ± 0.47,3.46 ± 0.28,,
GSSSFSLKGYPSLMRSQSPKAQPQ [TRIM29],3.76 ± 0.26,3.73 ± 0.28,,
AEALFDFTGNSKLELNFKAGDVIF [NCF4],2.05 ± 0.29,2.23 ± 0.27,,
SVLLSWEIPENYNSAMPFKILYDD [PTPRD],1.88 ± 0.26,2.29 ± 0.22,,
AFCALVHSFFPDAFDYNSLSPTQR [SMTNL2],2.61 ± 0.56,2.21 ± 0.31,,
QQPPRLLIVHIALPSWADICTNLC [M1AP],3 ± 0.3,2.74 ± 0.51,,
DSDNSGGGGGGGGGGGGGGGTSSN [ANKRD17],5.39 ± 0.31,5.58 ± 0.22,,
PNLNETSIVSGGYGGSGDGLIPTG [ARFIP2],4.18 ± 0.13,4.45 ± 0.095,,
DDAVRVLREIVHKPGPITLTVAKC [DVL3],2.87 ± 0.16,2.9 ± 0.17,,
LCEEFRNRNQRIVQLIQDTRIHIL [CPN1],2.25 ± 0.13,2.4 ± 0.26,,
TMARALGRFKLSIPHTHLLATLDP [WDR88],2.19 ± 0.27,2.21 ± 0.18,,
HTNCFELSIYVGCDKYPHESQLPE [CPXM2],2.54 ± 0.34,2.44 ± 0.051,,
LYELASLKRAFEAANLPALVLKIM [NEK8],2.33 ± 0.36,2.12 ± 0.34,,
ATPGEYSVNICGMNEHPVCSRTWT [SPAG8],2.44 ± 0.28,2.57 ± 0.39,,
LAMLALLSPLSLAQYDSWPHYPEY [LOXL2],3.22 ± 0.32,3.46 ± 0.16,,

Sequence,protein stability index [1],protein stability index [2],protein stability index [3],protein stability index [4]
EEWNALQSVENCPEDLAQLEELID [RPAIN],5.14 ± 0.29,5.29 ± 0.26,,
AANSYDLAIKAITSSAKVDMTFEE [FKBP8],4.28 ± 0.24,4.36 ± 0.22,,
LGGFSHWGRLTSYSGGGYYLDLPG [PKD2L1],2.47 ± 0.19,2.74 ± 0.25,,
VQELVLEDLQDGDVRMGGSFRGAF [NET1],3.38 ± 0.18,3.47 ± 0.12,,
RQKVLSLPLPDPLKYYLLYYREK [PCMTD2],,,2.14 ± 0.18,2.46 ± 0.19
TVASEAKIQLSDSEAKSHSSADDA [FAN1],5.46 ± 0.28,5.38 ± 0.27,,
EYSKFCRMSYQDPAQLSCLPYLEH [NFE2L1],2.52 ± 0.56,1.89 ± 0.42,,
GASHVLALSTERELFAWGRGDSGR [NEK8],3.38 ± 0.31,3.42 ± 0.26,,
HDGSSYLNSVERYDPKTNQWSSDV [KLHL20],4.46 ± 0.25,4.27 ± 0.4,,
VASRNLFPKDTLMNLHVYISEHEH [CLPTM1],2.35 ± 0.34,2.37 ± 0.51,,
GGFMGYSAENIPGCSSSGSCSQGS [CRY1],4.14 ± 0.3,4.4 ± 0.28,,
NALLSKRLLALTSSDLGCQPSRT [TMEM192],,,2.52 ± 0.72,2.61 ± 0.3
RSDLYSSGRDRVGRQERGLPPSME [RBMX],4.41 ± 0.091,4.51 ± 0.23,,
GEEQVELSTIEELIKDAIVSTQPA [C2CD2L],4.69 ± 0.3,4.7 ± 0.16,,
SILNAKAPALPPGGTDPHGYHQVP [FOXJ1],3.6 ± 0.2,3.66 ± 0.14,,
TPAGLPPSRAKPPTEGAGSPAKAS [FBF1],5.38 ± 0.32,5.4 ± 0.1,,
HGFLFMIFQIGVLGFGPTYVVLAY [SOAT1],2.86 ± 0.85,2.71 ± 0.8,,
FYHDHTKIIICSQNEEYLLTYINE [PLK2],2.57 ± 0.59,2.58 ± 0.54,,
FLGSSFSPVRCGGPGDASPRGCGA [WEE1],2.27 ± 0.34,2.61 ± 0.48,,
CEEALCSNLSVENVADTLVLADLH [SPOPL],4.52 ± 0.086,4.48 ± 0.22,,
HFQDNLHSVNRDLNELERLSNLVG [MED27],3.47 ± 0.19,3.52 ± 0.36,,
GCSSTQGNGRPGRPSQYRPDGLRS [LCOR],4.07 ± 0.085,4.14 ± 0.17,,
YFKCVQKDIQPYMRRMVATWMLEV [CCND2],2.71 ± 0.55,2.4 ± 0.45,,

Sequence,protein stability index [1],protein stability index [2],protein stability index [3],protein stability index [4]
LTLQVYREQADSCREQLDIMNDLS [TRIM14],2.99 ± 0.24,2.95 ± 0.1,,
LSALDSKANNLSSLSKKYRQDAKY [SEC22B],3.87 ± 0.19,3.98 ± 0.3,,
QAINNAINYLGAESLRPLVQTPPG [IKZF1],2.39 ± 0.29,2.25 ± 0.32,,
HRHTSHLGHAVLPSNARGPILSRS [SPRY1],3.69 ± 0.14,3.94 ± 0.13,,
TLHPDASANFHSLDDIYYFGGQNA [FUT8],3.21 ± 0.12,3.27 ± 0.16,,
NDNSPSFATPEREMRISESAASGA [PCDHGC5],5.21 ± 0.17,5.22 ± 0.089,,
PALSQLVNLYLGRSHFLWKEPATM [TCF25],3.25 ± 0.75,3.02 ± 0.9,,
GLPGKVFACLSVLFVTVTAVNLSV [KCNG1],3.36 ± 0.17,3.053 ± 0.022,,
EADASHCIQQILEAVLHCHQMGVV [CAMK2A],3.3 ± 0.15,2.86 ± 0.71,,
EANADLEVKIRDWHLKQSPASPER [KRT13],4.79 ± 0.15,4.97 ± 0.27,,
LGSGPDRELRKPEEPENGEPTAAA [PWWP2B],5.52 ± 0.18,5.25 ± 0.47,,
YYTTMQTLTKQDTMLKAMFSGRME [KCTD10],2.4 ± 0.16,2.4 ± 0.36,,
MSAALFSLDGPARGAPWPAEPAPF [CEBPD],2.95 ± 0.14,3.21 ± 0.18,,
ESPRKRKKATEAIDSLRKSKRLRN [FBXO28],5.3 ± 0.23,5.33 ± 0.14,,
RDLALVSRDGMNIVLNKINQILME [INTS3],2.58 ± 0.28,2.69 ± 0.67,,
IRDIRRRGKNKMAAQNCRKRKLDT [NFE2L1],3.84 ± 0.29,3.94 ± 0.32,,
LPGAVATIVKPLSAIPQPTITKQE [HNF4A],4.51 ± 0.24,4.54 ± 0.17,,
IVKQMKIIHEAGYSEEECKQYKAV [GNAI1],3.13 ± 0.22,3.77 ± 0.23,,
TVLAVLEDSSRDIREALHELLCCT [INTS4],2.43 ± 0.54,2.29 ± 0.26,,
KGNREDSARMSAGLPGPEAARSGD [PLEKHN1],5.41 ± 0.39,5.39 ± 0.41,,
GPAAFVDYFERNWEPRRDMWVRFR [ZSWIM9],2.4 ± 0.12,2.46 ± 0.37,,
RRCKPKKPTRRDASPESPSKKGPI [GNAS],5.15 ± 0.21,5.23 ± 0.22,,
EEGLADEEKKLRRSQHARKETEFL [STK38L],5.33 ± 0.08,5.2 ± 0.39,,

Sequence,protein stability index [1],protein stability index [2],protein stability index [3],protein stability index [4]
LLSRINKDWLEGTVRGATGIFPLS [NCF4],2.17 ± 0.47,2.51 ± 0.74,,
KEAGLSQSHDDLSNATATPSVRKK [C2CD2L],5.44 ± 0.19,5.53 ± 0.28,,
TSPTRQHHVEREKDHSSSRPSSPR [BTBD10],5.38 ± 0.12,5.45 ± 0.092,,
INVWDVLKGSRVSILFGHENRVST [GNB5],2.31 ± 0.33,2.27 ± 0.34,,
LYRQHQAQIDQYVGLVTNQLSHIK [RTN2],2.08 ± 0.34,2.05 ± 0.4,,
PNRQLWIELAPLSMPRINHGVLSA [GAN],2.17 ± 0.47,2.19 ± 0.13,,
QLFTEYGRLAMDEIFQKPFQTLMF [ATL3],2.33 ± 0.49,2.35 ± 0.47,,
LENSKYCRFNQDPEAVDEDRSTEP [ATE1],5.5 ± 0.24,5.29 ± 0.45,,
SMEKDATLNVDRKEKCVSLPDCCH [DLC1],4.81 ± 0.2,4.92 ± 0.17,,
KSPLHMTAVHGRFTRSQTLIQNGG [ANKRD44],3.28 ± 0.24,3.45 ± 0.18,,
KRRRKETSECPSDKDKSPESHKAK [C10orf62],5.34 ± 0.27,5.42 ± 0.21,,
DLTFAPDGSLILVSASRDKTLRVW [WSB1],2.32 ± 0.31,2.37 ± 0.099,,
AQTLAMMLQEQLDAINEEIRMIQE [PPFIA4],2.95 ± 0.29,2.7 ± 0.46,,
KCAEVIIPLLSSVNVSDRGGRTAL [ANKRD44],2.38 ± 0.37,2.37 ± 0.16,,
DLEMKEEEEISETGELVGPFVSAM [ZBED2],5.29 ± 0.27,5.27 ± 0.12,,
PGRLTEALCLEVRPTYFEMKNEKL [RNF180],4.9 ± 0.21,4.9 ± 0.15,,
RLNGTAKGERRREPGGYDSSSTLM [DVL3],3.62 ± 0.13,4.01 ± 0.31,,
SFPLWYEEALKDEEERAQDRIATT [MAGEA10],4.71 ± 0.19,4.5 ± 0.27,,
FLDLERPPTTPQNEEIRAVGRLKR [MFF],,4.07 ± 0.3,,
YFFPVIFSKASSSLQLVFGIELME [MAGEA3],3.44 ± 0.27,2.96 ± 0.25,,
